Experimental data: paper PMC9896810

Key:
[1] = target: T1, C3G full-length wild type (human, isoform a, residues 4-1077) (human) (UniProt Q13905)
T1 sequence: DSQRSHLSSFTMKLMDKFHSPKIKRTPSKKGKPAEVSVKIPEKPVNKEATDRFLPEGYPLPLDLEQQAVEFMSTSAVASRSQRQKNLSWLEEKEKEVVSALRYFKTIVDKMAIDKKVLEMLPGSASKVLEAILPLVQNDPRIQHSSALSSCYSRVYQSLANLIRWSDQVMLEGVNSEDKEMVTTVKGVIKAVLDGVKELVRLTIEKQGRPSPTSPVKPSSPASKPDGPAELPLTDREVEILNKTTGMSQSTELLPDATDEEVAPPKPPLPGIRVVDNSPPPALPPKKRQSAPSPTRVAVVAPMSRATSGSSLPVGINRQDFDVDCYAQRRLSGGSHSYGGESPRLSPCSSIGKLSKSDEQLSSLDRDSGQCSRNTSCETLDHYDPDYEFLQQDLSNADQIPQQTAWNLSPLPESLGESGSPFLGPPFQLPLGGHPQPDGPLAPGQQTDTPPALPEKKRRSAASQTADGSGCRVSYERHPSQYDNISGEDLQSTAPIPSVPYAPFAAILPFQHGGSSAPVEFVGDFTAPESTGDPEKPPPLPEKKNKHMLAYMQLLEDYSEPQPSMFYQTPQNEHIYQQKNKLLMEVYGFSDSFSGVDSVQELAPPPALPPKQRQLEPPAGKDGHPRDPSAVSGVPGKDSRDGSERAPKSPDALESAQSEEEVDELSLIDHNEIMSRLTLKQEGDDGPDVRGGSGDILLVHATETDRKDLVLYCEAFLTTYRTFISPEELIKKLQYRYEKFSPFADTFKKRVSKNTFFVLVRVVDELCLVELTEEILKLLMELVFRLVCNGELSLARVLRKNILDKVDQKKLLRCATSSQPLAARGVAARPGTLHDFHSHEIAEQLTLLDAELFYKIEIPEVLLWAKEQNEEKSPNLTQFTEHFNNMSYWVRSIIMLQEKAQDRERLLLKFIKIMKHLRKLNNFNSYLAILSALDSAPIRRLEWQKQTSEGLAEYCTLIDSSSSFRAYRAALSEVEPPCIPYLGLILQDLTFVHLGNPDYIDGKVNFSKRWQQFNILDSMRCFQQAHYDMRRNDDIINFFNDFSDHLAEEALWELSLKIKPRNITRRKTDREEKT

[2] = target: T2, Src-phosphorylated C3G (pC3G), wild type (human) (UniProt Q13905)
T2 sequence (chain, phosphotyrosines (phosphorylated in vitro by Src; sites not stated)): T1 sequence

C3G P1 P1 (Homo sapiens) = C3G P1 P1 (Homo sapiens) (UniProt Q13905); details: cited from earlier work
[3] = target: the P1 (C3G-PAAA) and P2 (C3G-APAA) motifs; experiment: ITC; single-PRM mutants of C3G in the cell titrated with full-length CrkL or CrkL-SH3N; 25 °C; 1:1 model in SEDPHAT; N is the competent fraction of C3G

CrkL, full-length (human), sequence (P46109 whole entry): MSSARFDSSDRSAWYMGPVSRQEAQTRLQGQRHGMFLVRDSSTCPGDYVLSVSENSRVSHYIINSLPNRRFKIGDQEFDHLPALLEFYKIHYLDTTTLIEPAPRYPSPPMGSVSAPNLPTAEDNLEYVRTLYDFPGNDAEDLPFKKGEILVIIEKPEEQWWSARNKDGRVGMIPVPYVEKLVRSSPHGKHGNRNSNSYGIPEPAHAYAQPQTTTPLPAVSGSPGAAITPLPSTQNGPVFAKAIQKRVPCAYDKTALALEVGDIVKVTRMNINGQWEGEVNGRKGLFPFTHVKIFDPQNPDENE
CrkL, sequence (P46109 whole entry): as above

Row | Substance | AC50 of the dose-response activation of the GEF activity of C3G (1 µM) on Rap1b:mant-dGDP [1] [µM] | kmax of the dose-response activation of the GEF activity of C3G (1 µM) on Rap1b:mant-dGDP [1] [M⁻¹ s⁻¹] | AC50 of the dose-response activation of the GEF activity of pC3G (0.2 µM) on Rap1b:mant-dGDP [2] [µM] | kmax of the dose-response activation of the GEF activity of pC3G (0.2 µM) on Rap1b:mant-dGDP [2] [s^-1 µM^-1] | Kd (C3G P1 P1 (Homo sapiens)) [µM] | stoichiometry N [3]
1 | CrkII-L-II chimera (from UniProt P46108-1 1-133; P46109 125-182; P46108-1 191-304) | 18.7 | 7900 | 1.6 | 0.03 | – | –
2 | CrkL (from UniProt P46109) | – | – | – | – | 2.8 | –
3 | CrkL, full-length (human) (from UniProt P46109 1-303) (natural protein) | – | – | – | – | – | 0.8 to 0.9
4 | CrkL-II-L chimera (from UniProt P46109 1-124; P46108-1 134-191; P46109 183-303) | 16.7 | 7900 | 2.3 | 0.0336 | – | –
